Measurements taken from paper PMC12431651 (2025).

Target: T1, MED25 ACID (Homo sapiens, UniProt Q71SY5)
T1 chain: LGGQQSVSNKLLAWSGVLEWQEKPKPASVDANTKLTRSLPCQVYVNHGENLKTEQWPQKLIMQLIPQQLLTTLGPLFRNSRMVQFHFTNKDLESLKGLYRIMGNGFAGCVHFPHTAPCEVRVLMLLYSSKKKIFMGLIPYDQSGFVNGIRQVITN
Assay: BLI

B1: NS1 (protein)
chain: MGSNSLSMIKVRLQNLFDNDEVALLKITCYTDKLIHLTNALAKAVIHTIKLNGIVFVHVITSSDICPNNNIVVKSNFTTMPVLQNGGYIWEMMELTHCSQPNGLLDDNCEIKFSKKLSDSTMTNYMNQLSELLGFDLNP
For B1, which Kd is on record?
Its Kd is 16 nM.
